These results are taken from US20250155449A1.

For assay [1], the target named is biotinylated IgG from human serum (Rockland Immunochemicals) (human). The assay can be described thus: BLI, equilibrium KD, soluble sample on immobilized hIgG. (In general: In BLI a coated tip is dipped into the sample, and binding shifts an interference pattern.)
Assay [2] has the same target. The assay can be described thus: BLI, kinetic fit values (1:1 model), soluble sample on immobilized hIgG.
The target is the same in assay [3]. The assay can be described thus: BLI (Octet), equilibrium titration of soluble analyte on biotinylated hIgG on streptavidin tips.

Sequence of recombinant antibody HP6017 (anti-human IgG, mouse IgG2a kappa) (heavy): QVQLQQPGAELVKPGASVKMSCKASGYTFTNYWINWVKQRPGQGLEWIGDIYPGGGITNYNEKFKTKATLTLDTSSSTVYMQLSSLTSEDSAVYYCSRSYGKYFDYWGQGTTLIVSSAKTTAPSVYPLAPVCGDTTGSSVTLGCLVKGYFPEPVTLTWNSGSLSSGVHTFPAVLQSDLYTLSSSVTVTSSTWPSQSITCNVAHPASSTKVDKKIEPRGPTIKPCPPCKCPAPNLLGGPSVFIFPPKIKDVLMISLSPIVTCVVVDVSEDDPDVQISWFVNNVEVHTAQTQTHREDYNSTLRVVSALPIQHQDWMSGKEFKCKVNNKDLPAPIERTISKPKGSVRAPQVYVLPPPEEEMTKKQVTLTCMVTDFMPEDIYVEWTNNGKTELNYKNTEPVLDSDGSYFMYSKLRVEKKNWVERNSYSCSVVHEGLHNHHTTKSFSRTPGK
Sequence of recombinant antibody HP6017 (anti-human IgG, mouse IgG2a kappa) (light): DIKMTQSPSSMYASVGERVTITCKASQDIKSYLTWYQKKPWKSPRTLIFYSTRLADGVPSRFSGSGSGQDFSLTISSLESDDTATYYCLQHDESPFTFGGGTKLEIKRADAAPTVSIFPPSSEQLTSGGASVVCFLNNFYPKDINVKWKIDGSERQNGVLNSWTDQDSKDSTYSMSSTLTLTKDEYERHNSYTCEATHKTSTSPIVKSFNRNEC
Sequence of Ab+Inv LC15 (HP6017 with invertase fused to the C-terminus of the light chain by a (G4S)3 linker) (light): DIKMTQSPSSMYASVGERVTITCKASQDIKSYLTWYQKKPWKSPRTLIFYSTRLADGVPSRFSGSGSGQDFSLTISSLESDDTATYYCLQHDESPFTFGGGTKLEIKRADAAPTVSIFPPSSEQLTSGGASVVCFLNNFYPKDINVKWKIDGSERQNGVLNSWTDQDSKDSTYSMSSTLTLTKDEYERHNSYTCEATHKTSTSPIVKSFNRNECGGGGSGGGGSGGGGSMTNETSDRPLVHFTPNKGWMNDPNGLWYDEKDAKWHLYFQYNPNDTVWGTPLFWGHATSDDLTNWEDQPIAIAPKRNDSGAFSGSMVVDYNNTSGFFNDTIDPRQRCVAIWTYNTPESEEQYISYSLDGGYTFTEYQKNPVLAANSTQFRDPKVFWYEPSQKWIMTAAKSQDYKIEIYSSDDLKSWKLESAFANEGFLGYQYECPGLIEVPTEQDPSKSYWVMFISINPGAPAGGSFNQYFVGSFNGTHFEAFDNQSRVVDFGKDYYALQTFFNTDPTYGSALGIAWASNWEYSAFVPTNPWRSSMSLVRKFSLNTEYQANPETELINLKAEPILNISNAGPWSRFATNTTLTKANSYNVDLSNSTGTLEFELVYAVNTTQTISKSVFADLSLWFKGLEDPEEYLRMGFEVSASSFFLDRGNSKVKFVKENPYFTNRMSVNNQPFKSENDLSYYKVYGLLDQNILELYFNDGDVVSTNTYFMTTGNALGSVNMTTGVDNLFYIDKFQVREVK
Sequence of Ab+Inv LC25 (HP6017 with invertase fused to the C-terminus of the light chain by a (G4S)5 linker) (light): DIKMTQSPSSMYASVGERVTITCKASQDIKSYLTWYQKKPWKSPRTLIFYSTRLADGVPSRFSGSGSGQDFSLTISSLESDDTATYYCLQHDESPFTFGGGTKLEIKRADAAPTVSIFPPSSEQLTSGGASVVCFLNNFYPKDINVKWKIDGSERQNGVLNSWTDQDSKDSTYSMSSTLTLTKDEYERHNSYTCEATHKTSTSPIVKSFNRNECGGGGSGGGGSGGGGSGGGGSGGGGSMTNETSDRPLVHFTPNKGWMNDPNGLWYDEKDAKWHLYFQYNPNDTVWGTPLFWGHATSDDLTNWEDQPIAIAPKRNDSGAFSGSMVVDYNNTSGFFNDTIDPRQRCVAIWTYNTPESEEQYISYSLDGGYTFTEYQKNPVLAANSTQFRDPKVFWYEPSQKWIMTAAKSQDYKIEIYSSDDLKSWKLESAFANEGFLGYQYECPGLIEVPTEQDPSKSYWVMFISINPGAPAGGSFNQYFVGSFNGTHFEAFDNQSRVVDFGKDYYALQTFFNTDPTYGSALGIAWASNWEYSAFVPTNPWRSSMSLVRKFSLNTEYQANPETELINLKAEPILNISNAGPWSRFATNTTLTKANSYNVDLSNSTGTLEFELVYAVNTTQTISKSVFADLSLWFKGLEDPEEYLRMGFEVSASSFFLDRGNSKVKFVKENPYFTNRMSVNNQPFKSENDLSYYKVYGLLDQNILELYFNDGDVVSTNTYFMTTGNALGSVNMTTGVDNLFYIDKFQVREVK
Sequence of Ab+Inv HC27 (HP6017 with invertase fused to the C-terminus of the heavy chain by an AS(G4S)5 linker) (heavy): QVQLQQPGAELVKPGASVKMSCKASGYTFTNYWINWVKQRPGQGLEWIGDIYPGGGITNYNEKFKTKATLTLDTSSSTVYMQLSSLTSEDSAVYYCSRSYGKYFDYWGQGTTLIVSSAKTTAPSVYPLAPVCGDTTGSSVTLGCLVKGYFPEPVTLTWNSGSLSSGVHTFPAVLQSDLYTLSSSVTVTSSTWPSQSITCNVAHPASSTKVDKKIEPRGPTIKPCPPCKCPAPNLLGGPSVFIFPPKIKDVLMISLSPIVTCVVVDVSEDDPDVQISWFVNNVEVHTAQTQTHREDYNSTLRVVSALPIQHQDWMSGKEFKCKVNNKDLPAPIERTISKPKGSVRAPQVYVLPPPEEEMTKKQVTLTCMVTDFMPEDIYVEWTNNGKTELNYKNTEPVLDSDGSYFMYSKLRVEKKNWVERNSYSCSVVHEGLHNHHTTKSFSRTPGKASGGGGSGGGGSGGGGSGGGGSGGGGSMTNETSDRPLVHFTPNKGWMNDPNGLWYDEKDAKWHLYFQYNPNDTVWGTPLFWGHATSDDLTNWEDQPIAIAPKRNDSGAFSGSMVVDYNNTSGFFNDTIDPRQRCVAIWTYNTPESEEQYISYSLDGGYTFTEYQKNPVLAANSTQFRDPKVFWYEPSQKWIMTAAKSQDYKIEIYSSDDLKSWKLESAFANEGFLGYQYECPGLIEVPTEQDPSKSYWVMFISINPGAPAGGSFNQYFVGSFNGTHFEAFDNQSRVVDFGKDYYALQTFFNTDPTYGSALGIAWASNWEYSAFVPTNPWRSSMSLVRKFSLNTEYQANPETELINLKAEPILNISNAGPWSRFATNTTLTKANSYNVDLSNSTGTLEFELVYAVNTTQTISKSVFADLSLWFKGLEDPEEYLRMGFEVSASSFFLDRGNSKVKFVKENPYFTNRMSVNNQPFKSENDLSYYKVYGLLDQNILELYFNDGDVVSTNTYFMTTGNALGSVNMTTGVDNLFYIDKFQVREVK
Sequence of Ab+Inv HC17 (HP6017 with invertase fused to the C-terminus of the heavy chain by an AS(G4S)3 linker) (heavy): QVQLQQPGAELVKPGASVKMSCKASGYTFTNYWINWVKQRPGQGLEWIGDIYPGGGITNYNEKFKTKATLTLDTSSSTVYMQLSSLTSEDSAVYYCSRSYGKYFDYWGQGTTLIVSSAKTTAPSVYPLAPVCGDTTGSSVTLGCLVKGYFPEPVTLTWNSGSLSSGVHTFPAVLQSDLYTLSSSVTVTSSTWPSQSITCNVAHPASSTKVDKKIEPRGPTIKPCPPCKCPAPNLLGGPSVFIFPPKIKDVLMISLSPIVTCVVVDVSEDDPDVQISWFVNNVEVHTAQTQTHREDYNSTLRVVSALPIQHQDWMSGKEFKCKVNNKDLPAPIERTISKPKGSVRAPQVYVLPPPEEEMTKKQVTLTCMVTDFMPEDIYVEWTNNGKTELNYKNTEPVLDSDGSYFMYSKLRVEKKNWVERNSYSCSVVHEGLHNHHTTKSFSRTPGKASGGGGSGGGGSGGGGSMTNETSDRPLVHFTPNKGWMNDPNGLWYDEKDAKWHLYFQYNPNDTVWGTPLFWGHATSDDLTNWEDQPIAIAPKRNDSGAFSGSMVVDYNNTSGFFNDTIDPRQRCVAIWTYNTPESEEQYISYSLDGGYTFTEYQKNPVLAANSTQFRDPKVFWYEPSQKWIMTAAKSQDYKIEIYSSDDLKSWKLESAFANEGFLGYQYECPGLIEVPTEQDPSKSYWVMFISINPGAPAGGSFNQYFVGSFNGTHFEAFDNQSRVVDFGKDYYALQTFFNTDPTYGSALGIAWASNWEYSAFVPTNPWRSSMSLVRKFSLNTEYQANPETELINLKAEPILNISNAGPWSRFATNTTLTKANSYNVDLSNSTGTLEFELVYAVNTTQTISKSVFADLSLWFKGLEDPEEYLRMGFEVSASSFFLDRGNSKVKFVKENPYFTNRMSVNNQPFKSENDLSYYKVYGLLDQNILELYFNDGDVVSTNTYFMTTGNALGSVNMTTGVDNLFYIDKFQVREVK

In the case of “Ab+Inv LC25 (HP6017 with invertase fused to the C-terminus of the light chain by a (G4S)5 linker)”, the Kd in assay [1] is 17 nM. Also, in assay [2], the Kd is less than 0.001 nM, the koff is less than 1e-07 s⁻¹ and the kon is 1.61e+06 M⁻¹ s⁻¹.
The substance “Ab+Inv LC15 (HP6017 with invertase fused to the C-terminus of the light chain by a (G4S)3 linker)” came in with a Kd in assay [1] of 16 nM. Further, in assay [2], the Kd is less than 0.001 nM, the koff was less than 1e-07 s⁻¹ and the kon was found to be 1.46e+06 M⁻¹ s⁻¹. The substance also returned an EC50 (read off the curve) in assay [3] of 20 nM.
In the same order, the values of “Ab+Inv HC27 (HP6017 with invertase fused to the C-terminus of the heavy chain by an AS(G4S)5 linker)” are 25 nM, less than 0.001 nM, less than 1e-07 s⁻¹, 450000 M⁻¹ s⁻¹ and 30 nM.
Substance “Ab+Inv HC17 (HP6017 with invertase fused to the C-terminus of the heavy chain by an AS(G4S)3 linker)” had a Kd in assay [1] of 21 nM. Moreover, in assay [2], the Kd was less than 0.001 nM, the koff was less than 1e-07 s⁻¹ and the kon is 430000 M⁻¹ s⁻¹. In addition, the 50% effective concentration (EC50 (read off the curve)) in assay [3] stood at 20 nM.
Taken in the same sequence, the figures for “recombinant antibody HP6017 (anti-human IgG, mouse IgG2a kappa)” were 18 nM, less than 0.001 nM, less than 1e-07 s⁻¹, 490000 M⁻¹ s⁻¹ and 20 nM.

As a reminder, the Kd is the equilibrium constant for the complex coming apart. Read a high Kd as weaker binding. What is called koff is a measure of how fast the partners let go of each other. High values mean fast dissociation, low ones slow dissociation. What is called kon is the second-order rate constant of association. By EC50 (read off the curve) is commonly meant the midpoint of the concentration-response curve. A high value points to lower potency in that assay.
